# From patent US20180223285
# How the values were obtained:
# human C5 (Homo sapiens) = human C5 (Homo sapiens) (UniProt P01031); assay: cell_activity; settings: maximal 2'-OMe purine and 2'-F pyrimidine substitution; complement-dependent sheep erythrocyte hemolysis in human serum; positive control
# human C5a (Homo sapiens) = target: T1, human C5a (Homo sapiens) (UniProt P01031); assay: SPR; settings: L-RNA
# T1 sequence: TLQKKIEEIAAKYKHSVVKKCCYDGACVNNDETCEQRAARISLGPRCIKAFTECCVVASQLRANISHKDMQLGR
# mouse C5a (Mus musculus) = target: T2, mouse C5a (Mus musculus) (UniProt P06684); assay: SPR; settings: L-RNA, Biacore, HBS-EP, 37 C
# T2 sequence: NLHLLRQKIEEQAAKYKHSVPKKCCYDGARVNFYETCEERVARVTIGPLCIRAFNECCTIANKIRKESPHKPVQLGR
# [1] = target: T3, human desArg-C5a (Homo sapiens) (UniProt P01031); assay: SPR; settings: L-RNA, 5' 40 kDa PEG, Biacore, HBS-EP, 37 C
# T3 sequence: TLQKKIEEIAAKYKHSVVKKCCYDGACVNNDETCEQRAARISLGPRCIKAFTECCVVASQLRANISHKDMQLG
# [2] = target: T4, mouse desArg-C5a (Mus musculus) (UniProt P06684); assay: SPR; settings: L-RNA; L-2'-deoxy dU7,dU28,dC38; 5' 40 kDa PEG; Biacore, HBS-EP, 37 C
# T4 sequence: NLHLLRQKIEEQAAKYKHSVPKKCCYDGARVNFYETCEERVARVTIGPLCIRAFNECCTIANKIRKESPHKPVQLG
# [3] = L-2'-deoxy dU5,dG12,dA13,dU26,dU28,dC36, terminal stretch truncated to one nucleotide, reduced activity, exact value in figure
substance,measurement,setting,value
C5C6 aptamer (Biesecker et al. 1999),IC50,human C5 (Homo sapiens),1000 nM
GAUGUGGUGGUGAAGGGUUGUUGGGUGUCGACGCACAGC [NOX-D19001-6xDNA-024],Kd,human C5a (Homo sapiens); [3],< 10 nM
GAUGUGGUGGUGAAGGGUUGUUGGGUGUCGACGCACAGGC [NOX-D19001-6xDNA-010],Kd,human C5a (Homo sapiens); [3],< 10 nM
GAUGUGGUGGUGAAGGGUUGUUGGGUGUCGACGCACGC [NOX-D19001-6xDNA-029],Kd,human C5a (Homo sapiens); [3],< 10 nM
GCCUGAUGUGGUGGUGAAGGGUUGUUGGGUGUCGACGCACAGGC [NOX-D19001 (274-C8-002-G14)],Kd,"human C5a (Homo sapiens); Biacore, HBS-EP, 37 C",1.38 nM
same,Kd,mouse C5a (Mus musculus),0.3 nM
GCCUGAUGUGGUGGUGAAGGGUUGUUGGGUGUCGACGCACAGGC [NOX-D19001-6xDNA (D09-16-17-30-32-40)],Kd,"human C5a (Homo sapiens); L-2'-deoxy dU9,dG16,dA17,dU30,dU32,dC40, Biacore, HBS-EP, 37 C",0.361 nM
GCCUGAUGUGGUGGUGAAGGGUUGUUGGGUGUCGACGCACAGGC [NOX-D19001-D09],Kd,"human C5a (Homo sapiens); L-2'-deoxy dU9, Biacore, HBS-EP, 37 C",0.709 nM
GCGAUGUGGUGGUGAAGGGUUGUUGGGUGUCGACGCAC [NOX-D19001-6xDNA-032],Kd,"human C5a (Homo sapiens); L-2'-deoxy dU7,dG14,dA15,dU28,dU30,dC38, terminal stretch truncated to one nucleotide, reduced activity, exact value in figure",< 10 nM
GCGAUGUGGUGGUGAAGGGUUGUUGGGUGUCGACGCACGC [NOX-D20 (NOX-D19001-6xDNA-020-5'40kDa-PEG)],Kd,"[1]; L-2'-deoxy dU7,dG14,dA15,dU28,dU30,dC38",0.316 nM
same,Kd,"human C5a (Homo sapiens); L-2'-deoxy dU7,dG14,dA15,dU28,dU30,dC38, 5' 40 kDa PEG, Biacore, HBS-EP, 37 C",0.299 nM
same,Kd,"mouse C5a (Mus musculus); L-2'-deoxy dU7,dG14,dA15,dU28,dU30,dC38, 5' 40 kDa PEG",0.019 nM
GCGAUGUGGUGGUGAAGGGUUGUUGGGUGUCGACGCACGC [NOX-D21 (NOX-D19001-2dU-1dC-020-5'40kDa-PEG)],Kd,"[1]; L-2'-deoxy dU7,dU28,dC38",0.854 nM
same,Kd,"human C5a (Homo sapiens); L-2'-deoxy dU7,dU28,dC38, 5' 40 kDa PEG, Biacore, HBS-EP, 37 C",0.815 nM
same,Kd,"mouse C5a (Mus musculus); L-2'-deoxy dU7,dU28,dC38, 5' 40 kDa PEG",0.029 nM
same,Kd,[2],0.028 nM
GCGAUGUGGUGGUGAAGGGUUGUUGGGUGUCGACGCACGC [NOX-D19001-2xDNA-020],Kd,"human C5a (Homo sapiens); L-2'-deoxy dU7,dU28, stated as improved by more than factor 10 vs 11.3 nM of NOX-D19001-020, exact value in figure",< 1.13 nM
GCGAUGUGGUGGUGAAGGGUUGUUGGGUGUCGACGCACGC [NOX-D19001-3dU-1dC-020],Kd,"human C5a (Homo sapiens); L-2'-deoxy dU7,dU28,dU30,dC38, stated as improved by more than factor 10 vs 11.3 nM of NOX-D19001-020, exact value in figure",< 1.13 nM
GCGAUGUGGUGGUGAAGGGUUGUUGGGUGUCGACGCACGC [NOX-D19001-3xDNA-020],Kd,"human C5a (Homo sapiens); L-2'-deoxy dU7,dU28,dU30, stated as improved by more than factor 10 vs 11.3 nM of NOX-D19001-020, exact value in figure",< 1.13 nM
GCGAUGUGGUGGUGAAGGGUUGUUGGGUGUCGACGCACGC [NOX-D19001-020],Kd,"human C5a (Homo sapiens); Biacore, HBS-EP, 37 C",11.3 nM
GCGAUGUGGUGGUGAAGGGUUGUUGGGUGUCGACGCACGC [NOX-D20001 (NOX-D19001-6xDNA-020)],Kd,"human C5a (Homo sapiens); L-2'-deoxy dU7,dG14,dA15,dU28,dU30,dC38, Biacore, HBS-EP, 37 C",0.3 nM
GCGAUGUGGUGGUGAAGGGUUGUUGGGUGUCGACGCACGC [NOX-D21001 (NOX-D19001-2dU-1dC-020)],Kd,"human C5a (Homo sapiens); L-2'-deoxy dU7,dU28,dC38, stated as improved by more than factor 10 vs 11.3 nM of NOX-D19001-020, exact value in figure",< 1.13 nM
